{
  "source": "paper PMC9974451",
  "about": "“Transportin 1 is a major nuclear import receptor of the nitric oxide synthase interacting protein” (The Journal of Biological Chemistry, 2023)",
  "conditions_in_all_cases": "both partners purified",
  "key": {"[1]": {"target": "T1, His-S-importin β (full length) (UniProt Q14974 1-876)", "T1 construct": "called full-length importin β (FL) in the fragment experiment; the ΔN fragment ends at aa 876; also called His-importin β; S-His-importin β", "assay": "pull-down; 100 pmol His-NOSIP-MBP (WT or K78A/K79A) or MBP immobilised on amylose beads, 100 pmol purified His-tagged NTR, with or without 300 pmol RanQ69L(1-180)-GTP, 3 h, 4 °C, TPB; SDS-PAGE, Coomassie"}, "[2]": {"target": "T2, importin β ΔC (aa 1-396), His-S-tagged (UniProt Q14974 1-396)", "T2 construct": "also called Imp β ΔC; N-terminal (ΔC) fragment", "T2 sequence (Q14974 1-396, stated change not applied)": "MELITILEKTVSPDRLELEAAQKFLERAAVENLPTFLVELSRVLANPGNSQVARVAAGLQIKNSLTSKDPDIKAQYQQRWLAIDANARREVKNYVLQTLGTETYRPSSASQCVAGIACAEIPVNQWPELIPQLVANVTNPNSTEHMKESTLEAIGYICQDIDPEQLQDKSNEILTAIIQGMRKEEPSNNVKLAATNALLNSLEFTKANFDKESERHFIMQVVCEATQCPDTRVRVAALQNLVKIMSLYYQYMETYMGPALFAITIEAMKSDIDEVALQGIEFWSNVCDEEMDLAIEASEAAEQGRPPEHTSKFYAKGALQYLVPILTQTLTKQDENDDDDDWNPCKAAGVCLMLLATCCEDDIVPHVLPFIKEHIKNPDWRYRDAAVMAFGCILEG", "assay": "pull-down; 100 pmol GST-IBB, GST-NOSIP or GST immobilised on glutathione Sepharose beads, 100 pmol His-S-tagged importin β FL, ΔN or ΔC; Western blot with anti-importin β"}, "[3]": {"target": "T1, His-S-importin β (full length)", "assay": "pull-down; 100 pmol GST-IBB, GST-NOSIP or GST immobilised on glutathione Sepharose beads, 100 pmol His-S-tagged importin β FL, ΔN or ΔC; Western blot with anti-importin β"}, "[4]": {"target": "T1, His-S-importin β (full length)", "assay": "pull-down; competition: 100 pmol His-S-importin β immobilised on S-protein beads, 100 pmol His-NOSIP with 0, 100, 300, 1000 pmol His-importin α, or the other way around; Coomassie"}, "[5]": {"target": "T3, His-importin 13 (UniProt O94829 1-963)", "T3 construct": "importin 13; also called Imp 13; His-Imp13; source: E. coli JM109, purified (Ni-NTA agarose, size exclusion chromatography)", "T3 sequence (looked up)": "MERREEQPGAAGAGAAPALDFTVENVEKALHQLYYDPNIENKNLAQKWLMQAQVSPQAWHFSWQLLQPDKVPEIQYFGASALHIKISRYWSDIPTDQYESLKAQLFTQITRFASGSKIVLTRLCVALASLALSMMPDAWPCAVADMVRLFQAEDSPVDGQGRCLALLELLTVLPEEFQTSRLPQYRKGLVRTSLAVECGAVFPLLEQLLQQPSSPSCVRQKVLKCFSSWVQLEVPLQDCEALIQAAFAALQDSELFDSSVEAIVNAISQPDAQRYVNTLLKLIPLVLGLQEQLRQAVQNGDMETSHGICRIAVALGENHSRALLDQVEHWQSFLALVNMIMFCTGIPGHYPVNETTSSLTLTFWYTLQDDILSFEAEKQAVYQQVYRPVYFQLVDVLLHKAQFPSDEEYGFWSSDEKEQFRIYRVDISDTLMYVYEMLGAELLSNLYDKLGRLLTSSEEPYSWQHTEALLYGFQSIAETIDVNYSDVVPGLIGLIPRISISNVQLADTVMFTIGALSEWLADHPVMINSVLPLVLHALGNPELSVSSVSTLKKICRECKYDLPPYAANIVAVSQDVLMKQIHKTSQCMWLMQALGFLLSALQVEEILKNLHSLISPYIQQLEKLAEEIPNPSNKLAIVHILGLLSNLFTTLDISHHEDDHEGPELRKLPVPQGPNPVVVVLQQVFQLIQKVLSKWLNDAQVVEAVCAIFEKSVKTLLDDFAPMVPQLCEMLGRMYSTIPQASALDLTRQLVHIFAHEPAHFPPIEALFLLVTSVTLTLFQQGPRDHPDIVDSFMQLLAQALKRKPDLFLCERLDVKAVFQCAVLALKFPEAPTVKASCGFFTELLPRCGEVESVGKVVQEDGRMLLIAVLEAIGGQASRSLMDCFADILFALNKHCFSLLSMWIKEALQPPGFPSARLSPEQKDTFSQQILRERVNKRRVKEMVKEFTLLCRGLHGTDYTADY", "assay": "differential scanning fluorimetry; His-tagged NTR at 0.5 μM in TPB with 2 mM DTT, His-NOSIP or Ubc9 titrated in 18 steps from 0.05 to 5 μM, 5x SYPRO Orange, 25 to 90 °C; Tm plotted against concentration, exponential fit"}, "[6]": {"target": "T4, His-TNPO1 (transportin 1) (UniProt Q92973-2 1-890)", "T4 construct": "transportin 1; The length 890 is printed for the MBP construct only; also called His-transportin 1", "T4 sequence (looked up)": "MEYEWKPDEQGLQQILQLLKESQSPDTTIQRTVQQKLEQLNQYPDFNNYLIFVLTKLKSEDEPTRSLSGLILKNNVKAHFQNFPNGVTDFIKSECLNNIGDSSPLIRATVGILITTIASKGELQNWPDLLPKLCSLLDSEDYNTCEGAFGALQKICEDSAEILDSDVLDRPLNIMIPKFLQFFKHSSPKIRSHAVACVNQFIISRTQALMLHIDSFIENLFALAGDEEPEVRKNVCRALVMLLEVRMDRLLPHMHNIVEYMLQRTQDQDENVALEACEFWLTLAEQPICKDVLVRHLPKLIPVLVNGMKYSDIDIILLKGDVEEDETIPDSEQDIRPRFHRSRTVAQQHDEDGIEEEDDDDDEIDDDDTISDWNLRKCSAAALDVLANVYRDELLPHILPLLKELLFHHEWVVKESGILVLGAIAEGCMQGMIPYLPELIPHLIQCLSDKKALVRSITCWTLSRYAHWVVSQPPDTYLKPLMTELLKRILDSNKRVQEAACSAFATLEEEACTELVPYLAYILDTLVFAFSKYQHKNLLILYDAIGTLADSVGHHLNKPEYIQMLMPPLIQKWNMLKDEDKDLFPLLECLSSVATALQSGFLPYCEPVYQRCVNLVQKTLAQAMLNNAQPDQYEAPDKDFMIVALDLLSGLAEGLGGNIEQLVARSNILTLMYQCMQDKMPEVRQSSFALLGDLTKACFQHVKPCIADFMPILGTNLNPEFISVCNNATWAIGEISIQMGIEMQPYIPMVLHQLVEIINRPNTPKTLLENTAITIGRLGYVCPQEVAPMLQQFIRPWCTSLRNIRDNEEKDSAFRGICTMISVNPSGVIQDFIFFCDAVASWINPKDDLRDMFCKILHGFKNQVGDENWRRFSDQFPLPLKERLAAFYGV", "assay": "differential scanning fluorimetry; His-tagged NTR at 0.5 μM in TPB with 2 mM DTT, His-NOSIP or Ubc9 titrated in 18 steps from 0.05 to 5 μM, 5x SYPRO Orange, 25 to 90 °C; Tm plotted against concentration, exponential fit"}, "[7]": {"target": "RanQ69L (aa 1-180) loaded with GTP (UniProt P62826 1-180, Q69L)", "assay": "pull-down; GST-M9 or GST-NOSIP immobilised on glutathione Sepharose beads, MBP-tagged TNPO1 FL, ΔN or ΔC, with or without RanQ69L(1-180)-GTP; Coomassie"}},
  "data": [
    {"binder": "His-NOSIP-MBP (nitric oxide synthase interacting protein) (natural protein, UniProt Q9Y314 1-301, looked up, Name is printed in the order His-NOSIP-MBP; also called wildtype (WT) His-NOSIP-MBP; immobilized NOSIP; source: E. coli JM109, purified (Ni-NTA agarose, amylose resin, dialysis)) MTRHGKNCTAGAVYTYHEKKKDTAASGYGTQNIRLSRDAVKDFDCCCLSLQPCHDPVVTPDGYLYEREAILEYILHQKKEIARQMKAYEKQRGTRREEQKELQRAASQDHVRGFLEKESAIVSRPLNPFTAKALSGTSPDDVQPGPSVGPPSKDKDKVLPSFWIPSLTPEAKATKLEKPSRTVTCPMSGKPLRMSDLTPVHFTPLDSSVDRVGLITRSERYVCAVTRDSLSNATPCAVLRPSGAVVTLECVEKLIRKDMVDPVTGDKLTDRDIIVLQRGGTGFAGSGVKLQAEKSRPVMQA", "values": [
      {"measurement": "binding result", "setting": "[1]", "result": "binds"}
    ]},
    {"binder": "GST-NOSIP (natural protein, UniProt Q9Y314 1-301, looked up, also called immobilized GST-NOSIP; source: E. coli JM109, purified (glutathione Sepharose, size exclusion chromatography)) MTRHGKNCTAGAVYTYHEKKKDTAASGYGTQNIRLSRDAVKDFDCCCLSLQPCHDPVVTPDGYLYEREAILEYILHQKKEIARQMKAYEKQRGTRREEQKELQRAASQDHVRGFLEKESAIVSRPLNPFTAKALSGTSPDDVQPGPSVGPPSKDKDKVLPSFWIPSLTPEAKATKLEKPSRTVTCPMSGKPLRMSDLTPVHFTPLDSSVDRVGLITRSERYVCAVTRDSLSNATPCAVLRPSGAVVTLECVEKLIRKDMVDPVTGDKLTDRDIIVLQRGGTGFAGSGVKLQAEKSRPVMQA", "values": [
      {"measurement": "binding result", "setting": "[2]", "result": "binds"},
      {"measurement": "binding result", "setting": "[3]", "result": "binds"}
    ]},
    {"binder": "His-NOSIP (natural protein, UniProt Q9Y314 1-301, looked up, Lacks the MBP tag; source: E. coli JM109, purified (Ni-NTA agarose, size exclusion chromatography)) MTRHGKNCTAGAVYTYHEKKKDTAASGYGTQNIRLSRDAVKDFDCCCLSLQPCHDPVVTPDGYLYEREAILEYILHQKKEIARQMKAYEKQRGTRREEQKELQRAASQDHVRGFLEKESAIVSRPLNPFTAKALSGTSPDDVQPGPSVGPPSKDKDKVLPSFWIPSLTPEAKATKLEKPSRTVTCPMSGKPLRMSDLTPVHFTPLDSSVDRVGLITRSERYVCAVTRDSLSNATPCAVLRPSGAVVTLECVEKLIRKDMVDPVTGDKLTDRDIIVLQRGGTGFAGSGVKLQAEKSRPVMQA", "values": [
      {"measurement": "binding result", "setting": "[4]", "result": "binds"},
      {"measurement": "Kd", "setting": "[5]", "result": "417 ± 100", "unit": "nM"},
      {"measurement": "Kd", "setting": "[6]", "result": "233 ± 60", "unit": "nM"}
    ]},
    {"binder": "MBP-TNPO1 FL (aa 1-890) (natural protein, transportin 1, full length printed as aa 1-890 (890 residues); also called full-length TNPO1; source: E. coli BL21DE3, purified (amylose resin, size exclusion chromatography)) MEYEWKPDEQGLQQILQLLKESQSPDTTIQRTVQQKLEQLNQYPDFNNYLIFVLTKLKSEDEPTRSLSGLILKNNVKAHFQNFPNGVTDFIKSECLNNIGDSSPLIRATVGILITTIASKGELQNWPDLLPKLCSLLDSEDYNTCEGAFGALQKICEDSAEILDSDVLDRPLNIMIPKFLQFFKHSSPKIRSHAVACVNQFIISRTQALMLHIDSFIENLFALAGDEEPEVRKNVCRALVMLLEVRMDRLLPHMHNIVEYMLQRTQDQDENVALEACEFWLTLAEQPICKDVLVRHLPKLIPVLVNGMKYSDIDIILLKGDVEEDETIPDSEQDIRPRFHRSRTVAQQHDEDGIEEEDDDDDEIDDDDTISDWNLRKCSAAALDVLANVYRDELLPHILPLLKELLFHHEWVVKESGILVLGAIAEGCMQGMIPYLPELIPHLIQCLSDKKALVRSITCWTLSRYAHWVVSQPPDTYLKPLMTELLKRILDSNKRVQEAACSAFATLEEEACTELVPYLAYILDTLVFAFSKYQHKNLLILYDAIGTLADSVGHHLNKPEYIQMLMPPLIQKWNMLKDEDKDLFPLLECLSSVATALQSGFLPYCEPVYQRCVNLVQKTLAQAMLNNAQPDQYEAPDKDFMIVALDLLSGLAEGLGGNIEQLVARSNILTLMYQCMQDKMPEVRQSSFALLGDLTKACFQHVKPCIADFMPILGTNLNPEFISVCNNATWAIGEISIQMGIEMQPYIPMVLHQLVEIINRPNTPKTLLENTAITIGRLGYVCPQEVAPMLQQFIRPWCTSLRNIRDNEEKDSAFRGICTMISVNPSGVIQDFIFFCDAVASWINPKDDLRDMFCKILHGFKNQVGDENWRRFSDQFPLPLKERLAAFYGV", "values": [
      {"measurement": "binding result", "setting": "[7]", "result": "binds"}
    ]}
  ]
}
